Experimental data published in patent US20190144917.

Legend:
[1] = system: S1: Biotin-CGPVGLIGK(Cy7)eGvndneeGffsar-NH2
[2] = system: S3: Biotin-CGPLGVRGKK(Cy7)eGvndneeGffsar-NH2
[3] = system: C1-NPs: fluorescein-conjugated MMP substrate peptide C1 (FAM-sk-PLGLEEA-GC) coupled to iron oxide nanoparticles
[4] = system: DMNPE-veiled C1-NPs (STREAMs)
[5] = system: S2: Biotin-CGPVPLSLVMK(Cy7)eGvndneeGffsar-NH2
S2: Biotin-CGPVPLSLVMK(Cy7)eGvndneeGffsar-NH2, sequence (chain, as listed by the source): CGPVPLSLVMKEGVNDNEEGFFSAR

recombinant MMP9, sequence (chain, as listed by the source): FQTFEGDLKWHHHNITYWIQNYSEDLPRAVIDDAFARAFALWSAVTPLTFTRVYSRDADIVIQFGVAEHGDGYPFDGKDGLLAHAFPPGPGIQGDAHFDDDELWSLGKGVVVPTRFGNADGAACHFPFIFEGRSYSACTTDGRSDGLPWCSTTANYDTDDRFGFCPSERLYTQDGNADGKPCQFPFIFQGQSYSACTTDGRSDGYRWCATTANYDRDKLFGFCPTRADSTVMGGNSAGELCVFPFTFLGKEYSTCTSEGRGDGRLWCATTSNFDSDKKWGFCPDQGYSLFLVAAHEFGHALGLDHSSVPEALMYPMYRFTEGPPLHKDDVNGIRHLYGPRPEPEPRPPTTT
recombinant MMP2, sequence (chain, as listed by the source): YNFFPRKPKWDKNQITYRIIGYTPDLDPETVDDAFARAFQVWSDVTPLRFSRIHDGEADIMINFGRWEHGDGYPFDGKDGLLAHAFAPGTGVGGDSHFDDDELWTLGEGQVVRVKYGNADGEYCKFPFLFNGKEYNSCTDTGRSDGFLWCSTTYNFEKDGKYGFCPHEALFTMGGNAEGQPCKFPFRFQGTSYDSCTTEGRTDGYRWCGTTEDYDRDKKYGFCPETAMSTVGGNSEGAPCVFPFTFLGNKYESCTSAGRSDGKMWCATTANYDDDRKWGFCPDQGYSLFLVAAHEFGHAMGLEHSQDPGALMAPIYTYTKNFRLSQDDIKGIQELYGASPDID
S1: Biotin-CGPVGLIGK(Cy7)eGvndneeGffsar-NH2, sequence (chain, as listed by the source): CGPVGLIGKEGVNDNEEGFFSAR
S3: Biotin-CGPLGVRGKK(Cy7)eGvndneeGffsar-NH2, sequence (chain, as listed by the source): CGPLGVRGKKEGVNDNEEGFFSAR
recombinant MMP19, sequence (chain, as listed by the source): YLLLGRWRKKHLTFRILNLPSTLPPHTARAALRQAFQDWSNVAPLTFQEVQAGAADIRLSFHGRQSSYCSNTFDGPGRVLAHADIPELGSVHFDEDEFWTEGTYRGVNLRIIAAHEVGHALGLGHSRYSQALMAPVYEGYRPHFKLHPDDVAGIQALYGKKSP

Substance | relative proteolysis (Cy7 signal after streptavidin depletion of uncleaved peptide) [1] | relative proteolysis (Cy7 signal after streptavidin depletion of uncleaved peptide) [2] | proteolysis (fluorescence dequenching) [3] | proteolysis (fluorescence dequenching) [4] | further results
recombinant MMP2 | responded primarily to MMP2 and MMP9 | responded primarily to MMP2 and MMP9 | – | – | –
recombinant MMP9 | responded primarily to MMP2 and MMP9 | responded primarily to MMP2 and MMP9 | significantly cleaved by MMP13, 7, 1, and 9 | marked reduction in proteolysis | catalytic efficiency (Michaelis-Menten fit) [3]: catalytic efficiencies>10^3 M^-1 s^-1 and 10^4 M^-1 s^-1, respectively
recombinant MMP13 | – | – | significantly cleaved by MMP13, 7, 1, and 9 | marked reduction in proteolysis | fluorescence dequenching measurements of protease cleavage [3]: with MMP13 as the most efficient
recombinant MMP19 | – | – | – | – | relative proteolysis (Cy7 signal after streptavidin depletion of uncleaved peptide) [5]: cleaved efficiently by MMP7 and MMP19
recombinant thrombin | – | – | – | – | cleavage monitored by fluorescence release [4]: reduced cleavage of the substrate
